The record followed here is patent US20230235078A1 (University of Texas, published 2023).

One test addresses Type I collagen. Nature of the test: ELISA on coated type I collagen with conditioned media. For orientation: In an ELISA, binding on a coated surface is turned into a signal by an enzyme label.
Test [1] deals with T1, Human DDR1 extracellular domain (ECD) protein (human, UniProt Q08345 21-417).
T1 construct: it is treated here as the same molecule; also called recombinant human DDR1 ECD; huDDR1 ECD; not shown: 6xHIS-tag
Put plainly: titration ELISA on human DDR1.

The target in another test is T2, mouse DDR1 ECD (mouse, UniProt Q03146 22-415).
T2 construct: extracellular domain; construct not described; also called mouse ECD
T2 sequence (looked up): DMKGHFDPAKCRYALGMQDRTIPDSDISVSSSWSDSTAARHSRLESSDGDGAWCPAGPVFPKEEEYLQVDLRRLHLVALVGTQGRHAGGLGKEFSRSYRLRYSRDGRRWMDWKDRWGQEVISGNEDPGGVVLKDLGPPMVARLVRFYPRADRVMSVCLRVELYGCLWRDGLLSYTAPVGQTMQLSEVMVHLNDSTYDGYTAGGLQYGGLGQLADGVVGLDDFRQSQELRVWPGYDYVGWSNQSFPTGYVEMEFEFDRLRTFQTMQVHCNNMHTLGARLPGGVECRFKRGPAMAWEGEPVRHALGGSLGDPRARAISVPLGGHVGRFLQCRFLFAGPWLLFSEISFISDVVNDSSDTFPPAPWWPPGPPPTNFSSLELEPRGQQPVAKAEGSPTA
Nature of the test: titration ELISA on mouse DDR1.

For test [2], the target named is T1, Human DDR1 extracellular domain (ECD) …. Nature of the test: titration ELISA; target not given, human DDR1 assumed.
Target sequence in this assay (Q08345 21-417): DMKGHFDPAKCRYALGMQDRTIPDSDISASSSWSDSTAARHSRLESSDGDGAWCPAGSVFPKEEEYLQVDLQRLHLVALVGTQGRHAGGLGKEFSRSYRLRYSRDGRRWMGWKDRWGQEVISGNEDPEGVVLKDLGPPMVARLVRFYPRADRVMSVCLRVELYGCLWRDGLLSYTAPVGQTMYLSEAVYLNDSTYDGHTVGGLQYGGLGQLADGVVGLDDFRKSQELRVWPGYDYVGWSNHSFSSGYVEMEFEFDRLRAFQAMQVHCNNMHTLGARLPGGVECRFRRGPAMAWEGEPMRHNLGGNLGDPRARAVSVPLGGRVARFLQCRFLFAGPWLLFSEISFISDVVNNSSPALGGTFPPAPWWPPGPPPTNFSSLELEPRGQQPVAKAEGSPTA
In the next test the target is T3, human DDR2 ECD (human, UniProt Q16832 22-399).
T3 construct: extracellular domain; also called DDR2 ECD protein
T3 sequence (looked up): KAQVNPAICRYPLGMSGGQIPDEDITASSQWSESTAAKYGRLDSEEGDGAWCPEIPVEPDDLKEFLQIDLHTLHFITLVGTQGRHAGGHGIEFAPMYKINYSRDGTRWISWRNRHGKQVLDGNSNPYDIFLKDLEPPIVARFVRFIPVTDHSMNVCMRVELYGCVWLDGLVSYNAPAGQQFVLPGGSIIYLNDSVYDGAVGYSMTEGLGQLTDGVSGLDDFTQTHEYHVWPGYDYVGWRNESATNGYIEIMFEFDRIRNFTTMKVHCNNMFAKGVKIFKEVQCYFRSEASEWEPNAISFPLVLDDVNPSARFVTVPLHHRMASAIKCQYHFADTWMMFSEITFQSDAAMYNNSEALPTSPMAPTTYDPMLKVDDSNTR
Nature of the test: ELISA, DDR2 ECD coated, antibody at 1 ug/ml, HRP anti-rabbit detection. As to the method: FIG. 19. Determination of cross-reactivity of a panel of monoclonal antibodies to human DDR2 using ELISA method. DDR1 or DDR2 ECD protein was coated on a high binding plate and each of monoclonal antibodies at 1 ug/ml concentration was added for binding detection with HRP conjugated anti-rabbit antibody (Jackson ImmuneResearch, PA).
To determination cross-reactivity of a panel of anti-human DDR1 monoclonal antibodies to human DDR2 ECD, an ELISA method was used. DDR1 ECD or DDR2 ECD protein was coated on a high binding plate and each of monoclonal antibodies was applied at 1 ug/ml concentration and binding was detected using HRP conjugated anti-rabbit antibody (Jackson ImmuneResearch, PA). Monoclonal antibodies DDR1-3; DDR1-9; DDR1-10; DDR1-14 and DDR1-33 were specific for DDR1 epitopes, while clones DDR1-13; DDR1-15; DDR1-21; DDR1-22 and DDR1-34 appear to recognize epitopes present on both DDR1 and DDR2 ECD.

Test [3] concerns the target T1, Human DDR1 extracellular domain (ECD) …. Nature of the test: BLI (Octet 96-Red), antibody on protein A biosensors, recombinant DDR1 0.1-200 nM, 1:1 fit. As to the method: Binding affinity of anti-DDR1 monoclonal antibodies determined using Bio-layer interferometry (BLI) sensor-based Octet instrument. […] Following a short baseline in kinetics buffer, the loaded biosensors were exposed to a series of recombinant DDR1 protein at 0.1-200 nM and background subtraction was used to correct for sensor drifting. All experiments were performed with shaking at 1,000 rpm. Background wavelength shifts were measured from reference biosensors that were loaded only with antibody. Kinetic sensorgrams for each antibody are shown in FIGS. 10A-B. ForteBio's data analysis software was used to fit the data to a 1:1 binding model to extract an association rate and dissociation rate. The KD was calculated using the ratio of koff/kₒₙ and the estimated values of KD for DDR1 mAbs in Table 13.
Target sequence in this assay (Q08345 21-417): as the sequence (Q08345 21-417) above
(In general: BLI is a label-free optical method that tracks binding on a fibre tip over time.)

For test [4] the target is unchanged. Put plainly: ELISA, ECD protein coated at 2 ug/ml, antibody titration. As to the method:
(§1) FIG. 18A-C. Determination of DDR1 antibody binding to ECD and DS or DSL domains using ELISA method. Recombinant DDR1 extracellular (ECD) protein and domain proteins were coated on a high binding 96-well plates at concentration at 2 μg/ml. (FIG. 18A) DDR1-9Hu antibody titration was used to determine binding curves and EC₅₀s. […] (FIG. 18C)
(§2) Antibody binding domain determination. To determine the binding of DDR1-9 (FIG. 18B) and DDR1-14 (FIG. 18C), and humanized DDR1-9hu-Abl to ECD and DS or DSL domains an ELISA method was used (FIG. 18A). Recombinant DDR1 extracellular (ECD) protein and domain deletion proteins were coated onto high binding 96-well plates at concentration at 2 ug/ml. […] Recombinantly expressed domain proteins were coated on a high-binding 96-well plate (Fisher Scientific) at concentration at 2 ug/ml. A series of antibody titrations was used to determine binding EC50. Deletion of DSL domain of DDR1 ECD impaired the bindings of both DDR1-9 and DDR1-14 antibodies. […] Fragment with DSL deletion totally abolished DDR1-9, DDR1-14, and DDR1-9Hu binding.

For test [5], the target named is DDR1 ECD fragment with deletion of DS domain (Homo sapiens (Human)) (UniProt Q08345). Nature of the test: ELISA, domain deletion protein coated at 2 ug/ml, antibody titration.
The target of test [6] is T1, Human DDR1 extracellular domain (ECD) …. Nature of the test: BLI (Octet); target not given, recombinant DDR1 assumed.
The target in test [7] is DDR1 ECD fragment with deletion of DS domain (Homo sapiens (Human)) (UniProt Q08345). Put plainly: ELISA, ECDΔDS-His coated at 2 µg/ml, antibody titrated.
Test [8] addresses T1, Human DDR1 extracellular domain (ECD) …. Put plainly: ELISA, ECD-His coated at 2 µg/ml, antibody titrated. The protocol:
as §1, §2

In the test with Type I collagen, “mouse DDR1 ECD T58A (from UniProt Q03146 22-415) (receptor)” came in with a percent of WT collagen binding affinity of 50%.

B1: DDR1-33 (antibody, V domains shown)
VH: QSVEESGGRLVTPGGSLTLTCTVSGFSLSSYDMSWVRQAPGKGLEWIGISWNSGFVDYASWAKGRFSISKTSTTVDLKITSPTTEDTATYFCARLGADDIYYFNLWGPGTLVTISS
VL: ELVMTQTPASVEAAVGGTVTIKCQASETISSRLAWYQQKPGQPPKLLIYQASKLPSGVPSRFKGTGSGTEYTLTISDLECADAATYYCQGCYYGGGSFYDSAFGGGTEVVVK
notes: Rabbit variable domains; also called anti-huDDR1 #33 antibody; DDR1-33K/DDR1-33H
In the case of B1, in test [1], the half-maximal effective concentration (EC50 (read off the curve)) is around 0.02 µg/mL. For the same molecule, the “EC50 (read off the curve)” value in the test with mouse DDR1 ECD is around 0.02 µg/mL. The half-maximal effective concentration (EC50) in test [2] amounted to 0.148 µg/mL. In the test with human DDR2 ECD, the binding result is “no binding (tested: 1 ug/ml)”. In test [3], the Kd worked out at 0.797 nM, the koff was 0.000493 s⁻¹ and the on-rate (kon) was found to be 619000 M⁻¹ s⁻¹.

B2: DDR1-9Hu-Ab1 (antibody, V domains shown)
VH: QVQLVESGGRVVQPGRSLRLSCTASGFSLNRYYMLWVRQAPGKGLEWIGTISYGDTTYYASWAKGRFTISRDNSKNTLYLQMNSLRAEDTAVYYCARADTGDNGYLGLQLWGQGTLVTVSS
VL: DIQMTQSPSSVSASVGDRVTITCQASQSIGSVLAWYQQKPGKAPKLLISGVFDLASGVPSRFSGSGSGTDFTLTISSLQPEDFATYYCQYIPYGSSPFGGGTKVEIK
notes: Humanized form of DDR1-9; also called DDR1-9hu-Abl; humanized DDR1-9hu antibody
As for B2, the half-maximal effective concentration (EC50) in test [4] came to 0.083 µg/mL. For the same molecule, the concentration giving a half-maximal response (EC50) in test [5] stood at 0.168 µg/mL. For the same molecule, in test [6], the Kd was 0.39 nM, the koff is 6.52e-05 s⁻¹ and the on-rate (kon) was 165000 M⁻¹ s⁻¹.

B3: DDR1-9 (antibody, V domains shown)
VH: QSLEESGGRLVTPGTPLTLTCTASGFSLNRYYMLWVRQAPGEGLEWIGTISYGDTTYYASWAKGRFTISKTSTTVDLKMTSPTTEDTATYFCARADTGDNGYLGLQLWGPGTLVTVSS
VL: ELVMTQTPASVEAAVGGTVTIKCQASQSIGSVLAWYQQKPGQRPKLLISGVFDLASGVPSRFKGSGSGTEFTLTISDLECADAATYYCQYIPYGSSPFGGGTEVVVK
notes: Rabbit variable domains; also called anti-huDDR1 antibody #9; DDR1-9K/DDR1-9H
In test [7], B3 registered an EC50 (read off the curve) of 0.2 µg/mL. Also, the “EC50 (read off the curve)” value in [8] is around 0.2 µg/mL. This molecule also returned a concentration giving a half-maximal response (EC50) in test [2] of 0.183 µg/mL. The binding result with human DDR2 ECD is recorded as “no binding (tested: 1 ug/ml)”. For the same molecule, in test [3], the dissociation constant Kd turned out to be 0.236 nM, the koff came out at 7.35e-05 s⁻¹ and the kon was found to be 311000 M⁻¹ s⁻¹.

B4: DDR1-14 (antibody, V domains shown)
VH: QSVKESGGRLVTPGTPLTLTCTVSGIDLSYYAMSWVRQAPGKGLEYIGIINGRGDTGYATWAKGRFTISKTSTTVDLRITSPTIEDTATYFCAREDSAIPFIVGNYYGMDLWGPGTLVTVSS
VL: ELDMTQTPASVSEPVGGTVTIKCQASQSISSYLAWYQQKPGQPPKRLIFEASTLASGVPSRFSGSGSGTDFTLTISDLECADAATYYCQNNNGFSGSNFNNFGGGTEVEIK
notes: Rabbit variable domains; also called anti-huDDR1 antibody #14; DDR1-14K/DDR1-14H
In the case of B4, the binding result with mouse DDR1 ECD is given as “no binding”. Besides, the response in [2] was half-maximal at 0.0713 µg/mL (EC50). Also, the binding result in the test with human DDR2 ECD was “no binding (tested: 1 ug/ml)”. Besides, in test [3], the dissociation constant Kd amounted to 0.113 nM, the off-rate (koff) stood at 2.27e-05 s⁻¹ and the kon is 202000 M⁻¹ s⁻¹.

B5: DDR1-3 (antibody, V domains shown)
VH: QSVKESGGRLVTPGTPLTLTCTVSGIDLSSYAMSWVRQAPGKGLEWIGTINIGGGTWDATWARGRFTISRTSTTVDLKITSPTIGDTATYFCARDVDAHTLTYFTLWGPGTLVTISS
VL: ELVLTQTPASVSEPVGGTVTIKCQASQTISSWLSWYQQKPGQPPKLLIYYAFNLASGVPSRFKGSGSGTEFTLTISDLECADAATYYCQQGISSSNVDNVFGGGTEVVVK
notes: Rabbit variable domains; also called anti-huDDR1 antibody #3; DDR1-3K/DDR1-3H
B5: the “EC50 (read off the curve)” value in test [1] was around 0.02 µg/mL. In addition, the binding result with mouse DDR1 ECD is reported as “no binding”. This molecule yielded an EC50 in test [2] of 0.0598 µg/mL. Also, the binding result in the test with human DDR2 ECD is “no binding (tested: 1 ug/ml)”. Besides, in test [3], the Kd was 1.1 nM, the koff worked out at 0.00191 s⁻¹ and the kon amounted to 1.73e+06 M⁻¹ s⁻¹.

The term EC50 (read off the curve) denotes the concentration needed to bring the measured effect to its halfway point. By EC50 is commonly meant the concentration needed to bring the measured effect to its halfway point. Read a high EC50 as weaker potency. As a reminder, the Kd is a measure of binding affinity in units of concentration. As a reminder, the koff is a measure of how fast the partners let go of each other. In general, kon refers to the second-order rate constant of association.
